Test results reported in paper PMC11988454, “Discovery of synthetic small molecules targeting the central regulator of Salmonella pathogenicity” (Science Advances, 2025).

Legend:
HilC = biological target: T1, HilC (Salmonella enterica serovar Typhimurium, UniProt E1WAB2 1-295); test: EMSA; no C26; conditions: protein: recombinant; tags: N-terminal His6-TEV, cleaved by TEV protease; chain copies: 2; label: 5'-Cy5 on strand 1; blunt
T1 sequence: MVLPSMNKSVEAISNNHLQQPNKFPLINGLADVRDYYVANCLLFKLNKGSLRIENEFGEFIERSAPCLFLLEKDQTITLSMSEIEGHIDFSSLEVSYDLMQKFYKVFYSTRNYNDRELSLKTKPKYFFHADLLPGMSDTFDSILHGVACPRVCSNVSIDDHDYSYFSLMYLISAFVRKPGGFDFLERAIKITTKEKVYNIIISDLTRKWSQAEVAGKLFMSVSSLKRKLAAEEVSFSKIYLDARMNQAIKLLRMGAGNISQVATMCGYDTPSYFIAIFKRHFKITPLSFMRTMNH

HilD = biological target: T2, HilD (Salmonella enterica serovar Typhimurium, UniProt P0CL08 1-309); test: EMSA; no C26; conditions: protein: recombinant; tags: His6-SUMO removed by SUMO protease; chain copies: 2; label: 5'-Cy5 on strand 1; blunt
T2 sequence: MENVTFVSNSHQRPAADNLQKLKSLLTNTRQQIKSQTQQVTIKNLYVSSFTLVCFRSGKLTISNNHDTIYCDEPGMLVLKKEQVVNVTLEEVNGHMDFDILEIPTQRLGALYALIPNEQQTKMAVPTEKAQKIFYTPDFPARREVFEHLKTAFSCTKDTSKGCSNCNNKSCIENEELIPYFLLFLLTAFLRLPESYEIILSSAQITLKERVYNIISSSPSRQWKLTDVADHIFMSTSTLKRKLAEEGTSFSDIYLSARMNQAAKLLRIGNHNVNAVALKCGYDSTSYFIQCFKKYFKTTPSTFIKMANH

HilD L45A = HilD L45A (Salmonella enterica serovar Typhimurium, UniProt P0CL08 1-309, L45A); test: EMSA; no C26; affinity comparable to WT; conditions: protein: recombinant; tags: His6-SUMO removed by SUMO protease; chain copies: 2; label: 5'-Cy5 on strand 1; blunt
HilD I100A = HilD I100A (Salmonella enterica serovar Typhimurium, UniProt P0CL08 1-309, I100A); test: EMSA; no C26; affinity comparable to WT; conditions: protein: recombinant; tags: His6-SUMO removed by SUMO protease; chain copies: 2; label: 5'-Cy5 on strand 1; blunt
HilD Y46A = HilD Y46A (Salmonella enterica serovar Typhimurium, UniProt P0CL08 1-309, Y46A); test: EMSA; no C26; affinity comparable to WT; conditions: protein: recombinant; tags: His6-SUMO removed by SUMO protease; chain copies: 2; label: 5'-Cy5 on strand 1; blunt
HilD Y212A = HilD Y212A (Salmonella enterica serovar Typhimurium, UniProt P0CL08 1-309, Y212A); test: EMSA; no C26; affinity comparable to WT; conditions: protein: recombinant; tags: His6-SUMO removed by SUMO protease; chain copies: 2; label: 5'-Cy5 on strand 1; blunt

Measured: binding result

B1: PhilA A1 62 bp (dsDNA)
DNA 1: GGGAGTAAAGAAAAGACGATATCATTATTTTGCAAAAAAATATAAAAATAAGCGCACCATTA
DNA 2: TAATGGTGCGCTTATTTTTATATTTTTTTGCAAAATAATGATATCGTCTTTTCTTTACTCCC
binds: all assays above
